The values below come from patent publication US8273855 (JIANGSU NOVAVAC BIO TEC, dated 2012).

The target in test [1] is T1, F3 on F3-transfected CHO cells (UniProt P12960 21-1001).
T1 construct: whole, on cells; also called F3-CHO; F3-expressing CHO cells
T1 sequence (looked up): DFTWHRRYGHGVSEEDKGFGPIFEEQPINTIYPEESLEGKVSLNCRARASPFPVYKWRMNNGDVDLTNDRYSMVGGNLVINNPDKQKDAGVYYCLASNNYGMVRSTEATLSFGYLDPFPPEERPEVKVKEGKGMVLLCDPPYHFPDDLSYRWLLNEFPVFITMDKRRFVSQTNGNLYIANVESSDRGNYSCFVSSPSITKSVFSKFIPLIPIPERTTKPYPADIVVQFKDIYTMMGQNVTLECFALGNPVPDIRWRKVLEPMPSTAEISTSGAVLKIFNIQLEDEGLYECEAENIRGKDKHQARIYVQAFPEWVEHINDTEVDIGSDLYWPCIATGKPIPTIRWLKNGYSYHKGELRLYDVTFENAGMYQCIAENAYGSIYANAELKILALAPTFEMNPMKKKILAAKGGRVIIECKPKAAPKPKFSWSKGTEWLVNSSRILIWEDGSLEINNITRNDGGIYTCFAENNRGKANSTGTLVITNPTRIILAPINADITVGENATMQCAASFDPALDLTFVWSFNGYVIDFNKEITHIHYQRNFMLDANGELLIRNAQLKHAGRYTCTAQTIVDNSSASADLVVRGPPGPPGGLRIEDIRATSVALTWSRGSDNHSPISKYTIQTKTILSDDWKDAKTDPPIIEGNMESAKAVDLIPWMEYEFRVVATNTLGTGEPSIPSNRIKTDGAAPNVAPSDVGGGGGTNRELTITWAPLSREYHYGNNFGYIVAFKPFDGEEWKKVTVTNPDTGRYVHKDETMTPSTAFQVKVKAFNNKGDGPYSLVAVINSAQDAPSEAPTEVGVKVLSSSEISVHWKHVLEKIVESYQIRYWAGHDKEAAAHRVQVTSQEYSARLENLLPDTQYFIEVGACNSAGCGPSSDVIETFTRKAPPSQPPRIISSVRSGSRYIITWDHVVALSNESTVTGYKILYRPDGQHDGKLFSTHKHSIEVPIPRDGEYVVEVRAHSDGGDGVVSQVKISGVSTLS
Description: cell adhesion assay, F3-CHO cells on coated substrate.

Test [2] concerns the target T2, Kv1.1 (native, mouse brain extracts) (mouse, UniProt P16388 1-495).
T2 construct: also called Kv1.1 K+ channel alpha-subunit
The experiment in a line: GST pull-down from adult mouse brain membrane extracts. The source says: (§1) During myelination, the proper segregation of K^+ channels to juxtaparanodes requires an intact paranodal axoglial junction (Vabnick and Shrager, 1998).

The target in test [3] is T3, Caspr (native, mouse brain) (mouse, UniProt O54991 21-1385).
T3 construct: also called mouse Caspr
T3 sequence (looked up): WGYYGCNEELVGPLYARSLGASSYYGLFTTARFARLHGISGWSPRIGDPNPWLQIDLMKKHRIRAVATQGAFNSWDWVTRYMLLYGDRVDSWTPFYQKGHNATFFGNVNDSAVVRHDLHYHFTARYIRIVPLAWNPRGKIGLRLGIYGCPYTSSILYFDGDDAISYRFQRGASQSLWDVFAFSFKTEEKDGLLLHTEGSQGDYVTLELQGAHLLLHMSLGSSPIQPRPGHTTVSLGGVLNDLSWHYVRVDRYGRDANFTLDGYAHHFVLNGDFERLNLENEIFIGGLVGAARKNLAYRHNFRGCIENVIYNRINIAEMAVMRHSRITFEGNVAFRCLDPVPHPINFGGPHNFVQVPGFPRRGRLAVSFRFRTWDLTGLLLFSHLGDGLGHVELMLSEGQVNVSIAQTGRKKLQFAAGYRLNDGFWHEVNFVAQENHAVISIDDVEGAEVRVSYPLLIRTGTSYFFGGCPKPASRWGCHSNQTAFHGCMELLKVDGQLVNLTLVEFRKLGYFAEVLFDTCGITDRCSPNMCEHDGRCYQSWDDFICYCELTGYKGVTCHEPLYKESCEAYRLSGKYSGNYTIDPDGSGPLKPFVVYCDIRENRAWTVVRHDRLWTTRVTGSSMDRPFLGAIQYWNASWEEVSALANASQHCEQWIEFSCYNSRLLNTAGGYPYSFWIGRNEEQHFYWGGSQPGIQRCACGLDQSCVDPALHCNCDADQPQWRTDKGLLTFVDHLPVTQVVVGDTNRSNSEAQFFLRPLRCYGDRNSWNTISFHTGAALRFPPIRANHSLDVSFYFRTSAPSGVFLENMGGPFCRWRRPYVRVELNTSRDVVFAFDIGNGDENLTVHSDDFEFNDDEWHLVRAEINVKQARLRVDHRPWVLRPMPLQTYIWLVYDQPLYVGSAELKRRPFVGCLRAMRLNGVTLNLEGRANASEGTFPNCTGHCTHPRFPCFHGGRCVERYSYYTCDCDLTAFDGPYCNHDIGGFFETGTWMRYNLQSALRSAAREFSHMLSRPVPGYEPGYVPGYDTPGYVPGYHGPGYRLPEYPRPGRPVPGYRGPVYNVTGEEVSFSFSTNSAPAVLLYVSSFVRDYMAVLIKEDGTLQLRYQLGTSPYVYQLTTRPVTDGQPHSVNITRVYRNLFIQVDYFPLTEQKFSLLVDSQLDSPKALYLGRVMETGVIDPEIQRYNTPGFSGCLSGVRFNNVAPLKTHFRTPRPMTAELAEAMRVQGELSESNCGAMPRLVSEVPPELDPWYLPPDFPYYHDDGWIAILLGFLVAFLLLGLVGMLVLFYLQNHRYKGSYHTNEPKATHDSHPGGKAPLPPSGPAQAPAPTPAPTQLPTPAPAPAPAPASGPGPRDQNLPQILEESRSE
The description is as above.
From the text: as §1

Test [4] addresses T4, Caspr (native, adult rat brain membrane extracts) (rat, UniProt P97846 21-1381).
T4 construct: also called Paranodin; contactin-associated protein
T4 sequence (looked up): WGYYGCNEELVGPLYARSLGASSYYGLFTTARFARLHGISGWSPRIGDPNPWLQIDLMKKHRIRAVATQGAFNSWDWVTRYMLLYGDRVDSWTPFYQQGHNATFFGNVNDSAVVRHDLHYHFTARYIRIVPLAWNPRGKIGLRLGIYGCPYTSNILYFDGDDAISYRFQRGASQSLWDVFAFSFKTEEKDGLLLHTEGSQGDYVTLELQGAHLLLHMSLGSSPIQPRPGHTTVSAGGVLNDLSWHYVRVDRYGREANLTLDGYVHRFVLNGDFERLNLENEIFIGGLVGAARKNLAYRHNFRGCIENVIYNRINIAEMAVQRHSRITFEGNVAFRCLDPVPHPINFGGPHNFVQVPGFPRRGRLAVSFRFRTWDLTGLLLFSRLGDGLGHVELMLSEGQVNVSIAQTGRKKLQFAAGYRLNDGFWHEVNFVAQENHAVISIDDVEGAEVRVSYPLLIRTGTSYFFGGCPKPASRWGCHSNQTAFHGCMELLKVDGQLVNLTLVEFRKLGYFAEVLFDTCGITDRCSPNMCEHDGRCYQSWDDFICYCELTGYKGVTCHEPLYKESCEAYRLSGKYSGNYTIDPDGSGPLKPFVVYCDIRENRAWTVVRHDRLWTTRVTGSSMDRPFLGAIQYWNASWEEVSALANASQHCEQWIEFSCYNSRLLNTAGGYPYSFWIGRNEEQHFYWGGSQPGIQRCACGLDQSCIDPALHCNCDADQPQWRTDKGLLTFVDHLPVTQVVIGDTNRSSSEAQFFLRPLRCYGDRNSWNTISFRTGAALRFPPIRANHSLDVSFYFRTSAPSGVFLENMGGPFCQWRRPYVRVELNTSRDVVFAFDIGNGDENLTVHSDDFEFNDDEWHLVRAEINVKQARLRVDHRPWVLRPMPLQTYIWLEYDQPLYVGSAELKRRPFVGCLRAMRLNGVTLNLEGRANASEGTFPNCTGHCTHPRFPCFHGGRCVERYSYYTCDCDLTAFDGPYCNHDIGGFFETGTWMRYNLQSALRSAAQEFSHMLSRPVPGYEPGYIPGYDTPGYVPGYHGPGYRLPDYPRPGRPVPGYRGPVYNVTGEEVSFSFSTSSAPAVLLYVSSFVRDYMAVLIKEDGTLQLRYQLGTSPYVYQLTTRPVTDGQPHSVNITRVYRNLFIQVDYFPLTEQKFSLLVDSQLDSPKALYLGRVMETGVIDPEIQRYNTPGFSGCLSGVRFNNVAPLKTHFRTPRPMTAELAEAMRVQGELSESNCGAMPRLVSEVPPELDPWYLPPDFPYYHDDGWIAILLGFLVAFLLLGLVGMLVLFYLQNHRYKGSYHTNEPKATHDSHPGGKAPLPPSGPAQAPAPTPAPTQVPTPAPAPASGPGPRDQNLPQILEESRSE
The experiment in a line: co-immunoprecipitation from adult rat brain membrane extracts, Western blot. On the technique in general: Immunoblotting shows a protein as a band on a membrane.
Description: Briefly, brain tissue was homogenized in ice-cold homogenizing buffer (320 mM sucrose, 10 mM Tris-HCl pH7.4, 1 mM NaHCO_3 pH7.4, 1 mM MgCl_2) supplemented with 1% protease inhibitor cocktail (Amersham), and subsequently centrifuged at 5,000 g for 15 min. The supernatant was collected and spun at 60,000 g (Beckman ultracentrifuge) for 60 min at 4° C. Pellets were then dissolved in a lysis buffer (10 mM Tris-HCl pH9, 150 mM NaCl, 0.5% Triton X-100, 1% sodium deoxycholate (DOC), 0.5% SDS, 2 mM EDTA, and 1% protease inhibitor cocktail) for subsequent experiments.

T2 sequence (P16388 whole entry): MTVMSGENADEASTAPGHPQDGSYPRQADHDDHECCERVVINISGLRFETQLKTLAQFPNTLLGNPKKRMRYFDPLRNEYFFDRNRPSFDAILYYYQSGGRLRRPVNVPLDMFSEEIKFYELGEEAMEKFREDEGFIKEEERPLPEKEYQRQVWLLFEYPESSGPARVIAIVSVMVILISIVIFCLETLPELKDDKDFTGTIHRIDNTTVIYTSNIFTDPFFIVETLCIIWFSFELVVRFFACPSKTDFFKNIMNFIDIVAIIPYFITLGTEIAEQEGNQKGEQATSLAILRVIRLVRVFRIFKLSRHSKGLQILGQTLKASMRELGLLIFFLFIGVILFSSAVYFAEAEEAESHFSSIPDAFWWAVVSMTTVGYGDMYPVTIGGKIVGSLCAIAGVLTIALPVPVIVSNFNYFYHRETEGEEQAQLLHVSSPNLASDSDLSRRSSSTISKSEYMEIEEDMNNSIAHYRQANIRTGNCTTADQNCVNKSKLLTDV

B1: GST-Nogo-N (other, human, UniProt Q9NQC3 186-370, looked up)
chain: DETLFALPAASEPVIRSSAENMDLKEQPGNTISAGQEDFPSVLLETAASLPSLSPLSAASFKEHEYLGNLSTVLPTEGTLQENVSEASKEVSEKAKTLLIDRDLTEFSELEYSEMGSSFSVSPKAESAVIVANPREEIIVKNKDEEEKLVSNNILHNQQELPTALTKLVKEDEVVSSEKAKDSFN
notes: domain: cytoplasmic N-terminal domain of Nogo-A (Nogo-N); also called Nogo-N-GST; Nogo-N-terminal-GST; not shown: glutathione S-transferase (GST) encoded by vector pGEX-KG
Consider B1, for which the binding result in test [1] was “no binding”; in test [2], “no binding (tested: 20 µg bead-bound protein)”; in test [3] it was “no binding (tested: 20 µg bead-bound protein)”.

B2: NB-3 (native, rat brain) (ligand, UniProt P97528 20-999, looked up)
chain: ESRFTRPIFIQEPQDVIFPLDLSRSEIILSCTASGYPSPHYRWKQNGTDIDFSMTYHYRLDGGSLAISSPRTDQDIGIYQCLATNPVGTILSRKAKLQFAYIEDFETKSRSTVSVREGQGVVLLCGPPPHFGELSYDWTFNDNPLYVQEDKRRFVSQNTGNLYIAKVEPSDVGNYTCFVTNKEAHRSVQGPPTPLVQRTDGVMGEYEPKIEVRFPETIQAAKDSSVKLECFALGNPVPDISWRRLDGSPMPGKVKYSNSQATLEIPKFQQEDEGFYECVAGNLRGRNLAKGQLIFYAPPEWEQKIQNTYLSIYDSLFWECKASGNPNPSYTWLKNGERLNTEERIQTENGTLIITMLNVSDSGIYQCAAENKYQTIYANAELRVLASAPDFSKNPIKKISVVQVGGDISIECKPNAFPKASISWKRGTENLKQSKRVFFLEDGSLKICNVTRSDAGSYTCVATNQFGNGKSSGSLIVKERTVITVPPSKMDVTVGESIVLPCQVSHDPTMEVLFVWYFNGDVIDLKKGVAHFERIGGESVGDLMIRNIQLGHSGKYLCTVQTTLERLSAVADIIVRGPPGPPEDVKVEHISSTTSQLSWRPGPDNNSPIQIFTIQTRTPFSVGWQAVATVPEILNGQTYNATVIGLSPWVEYEFRVVAGNNIGIGEPSKPSELLRTKASIPNVAPVNINGGGGSRSELVITWEPIPEELQNGEGFGYIIMFRPVGSTTWMKEKVALVESSKFIYRNESIMPLSPFEVKVGVYNNEGEGSLSTVSIVYSGEDEPRLAPRGTSVQSFSASDMEVSWNAIAWNRNTGRVLGYEVLYWTDNSKESMIGKIRVSGNVTTKNITGLRANTIYFASVRAYNTAGTGPSSPPVNVTTKKSPPSQPPANIAWKLSNSKLCLNWEHVKTMENESEVLGYKILYRQNRQSKTHVLETNNTSAELLVPFEEDYLIEIRTVSDGGDGSSSEEIRIPKMSSLSS
As for B2, the binding result in test [4] is “no binding”.
